Assay [1] has as its target West Nile virus strain USA99b (strain 385-99), whole virus (West Nile virus strain 385-99 (USA99b)). The assay is described as follows: ELISA on irradiated WNV; antibody diluted 1:5. For orientation: ELISA stands for enzyme-linked immunosorbent assay.
Assay [2] shares this target. The assay is described as follows: ELISA on irradiated WNV; antibody diluted 1:125.
Assay [3] has the same target. The assay is described as follows: ELISA on irradiated WNV; antibody diluted 1:25.
The target is the same in assay [4]. As to the kind of experiment: ELISA on irradiated WNV; antibody at 20.000 µg/ml.
The target of assay [5] is WNV-like particles with E protein mutation A365V (West Nile virus strain 382-99) (UniProt Q9Q6P4).
For assay [6], the target named is West Nile virus strain USA99b (strain 385-99), whole virus (West Nile virus strain 385-99 (USA99b)). As to the kind of experiment: SPR (BIAcore3000), WNV captured via immobilized CR4283, IgG injected, bivalent analyte model, average of duplicates. For orientation: Surface plasmon resonance follows binding to a sensor surface in real time, without labels.

For the substance “anti-rabies virus antibody (negative control)”, the OD 492 nm in assay [1] amounted to 0.062 OD; in assay [2], 0.046 OD; in assay [3] it was 0.056 OD; in assay [4], 0.051 OD.
The substance “WNV-E protein specific murine antibody 7H2” displayed a fold binding against wild-type VLP in assay [5] of 2 fold. Besides, the OD 492 nm came out at 2.09 OD in assay [1], 2.13 OD in assay [2] and 2.12 OD in assay [3]. Moreover, in assay [6], the Kd worked out at 0.32 nM.

Source of the values: US7537764.
